Data reported in patent publication US5128450A, “Nonglycosylated human interleukin-3 analog proteins” (priority 1989, dated 1992).

B1: Met^3 rhuIL-3 (Pro^8 Asp^15 Asp^70): truncated, non-glycosylated IL-3 analog having an N-terminus at Met^3, expressed from pIXY290 (protein, UniProt P08700 20-152, looked up, variant del1-2 N15D N70D)
Interleukin-3: MTQTTPLKTSWVDCSNMIDEIITHLKQPPLPLLDFNNLNGEDQDILMENNLRRPNLEAFNRAVKSLQDASAIESILKNLLPCLPLATAAPTRHPIHIKDGDWNEFRRKLTFYLKTLENAQAQQTTLSLAIF
B2: huIL-3 (Ser^8): composition of huIL-3 (Ser^8) produced in E. coli, reported by Valent et al. (protein, UniProt P08700 20-152, looked up, variant P8S)
Interleukin-3: APMTQTTSLKTSWVNCSNMIDEIITHLKQPPLPLLDFNNLNGEDQDILMENNLRRPNLEAFNRAVKSLQNASAIESILKNLLPCLPLATAAPTRHPIHIKDGDWNEFRRKLTFYLKTLENAQAQQTTLSLAIF

Key:
human bone marrow cells = test: Human bone marrow proliferation assay; format: cell-based
Description: Freshly isolated human bone marrow cells are preincubated for 2 hours at 37° C., 5% CO2, in tissue culture flasks containing 2×10^6 cells per mi prewarmed, pregassed serum-free RPMI1640 medium (Gibco, Chagrin Falls, OH, USA) containing 50 units/ml penicillin, 50 μg/ml streptomycin, and 300 μg/ml fresh L-glutamine (hereinafter "assay medium"). After preincubation, nonadherent cells are removed by pipetting the media gently over the surface of the flask. Nonadherent cells are collected by centrifugation at 1000 rpm for 10 minutes at 4° C., resuspended in a small volume of assay medium containing 10% fetal bovine serum (FBS), and counted using Trypan blue for viability and Turks stain for recovery of white cells. Cells are kept at about 4° C. in assay medium containing 10% FBS until added to assay plates.
50 μl assay medium are added to each well of a 96 well flat bottom tissue culture plate. 50 μl of sample diluted in assay medium are added to the first well of each row, and serial dilutions are made across each row in the usual manner. […] After incubation, cells are harvested onto glass fiber filters, washed, and tested for incorporated radioactivity using a scintillation counter. Units of huIL-3 activity are calculated by reference to the quantity of huIL-3 which induces 50% of maximal thymidine incorporation. […]

rhesus monkeys = conditions: cited from earlier work

| Molecule | biological activity compared with production lots of Example 2 (human bone marrow cells) | intracellular histamine (IH) in WBC (rhesus monkeys; after IL-3 treatment until day 8-10) | white blood cell (WBC) increase (rhesus monkeys; by day 14, 11, 33, 100 μg/kg/day s.c. thrice daily) | plasma histamine (rhesus monkeys; rhesus monkey, in vivo) | skin side effects (skin biopsy) (rhesus monkeys; rhesus monkey, in vivo) |
| --- | --- | --- | --- | --- | --- |
| B1 | comparable in biological activity to the rhuIL-3 production lots | – | – | – | – |
| B2 | – | rise continuously | 2-3 fold | rise in plasma histamine values | urticaria-like exanthem revealing infiltration of mast cells and lymphocytes into the dermis |
